Laboratory results as given in the nanobody polyreactivity screen of Harvey et al. (2022).

Test: yeast display, Sf9 membrane polyspecificity reagent, FACS + sequencing; frameworks hold sequencing errors
How it was run: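 In a synthetic yeast display library (Saccharomyces cerevisiae BJ5465), nanobody expression was induced with galactose for 36–48 hours. FACS gates were set low and high (top ~1%) using anti-HA fluorescence for expression and streptavidin fluorescence for binding of the Sf9 membrane reagent. Each polyreactivity label is drawn from the gate of origin.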

Sequence | polyreactivity (PSR sort gate)
QFQLVESGGGLVQAGGSLRLSCAASGSTFTPYDMGWYRQAPGKERELVAVITGSDGTYYADSVKGRFTISRDNAKNTVYLQMNSLKPEDTAVYYCATDWTFGRWSTLGVEMDYWGQGTQVTVSS | low polyreactivity
QVQLVESGGGLVQAGGSLRLSCAASGRTFDVYAMGWYRQAPGKEREFVASITRSGASTYADSVKGRFTISRDNAKNTVYLQMNSLKPEDTAVYYCNAELDLDTGWDGFVAYDYWGQGTQVSVSS | low polyreactivity
QVQLVESGGGLVQAGGSLRLSCAASGFIFFINDMGWYRQAPGKERELVAAISWSGGSTYYADSVKGRFTISRDNAKNTVYLQMNSLKPEDTAVYYCNTDVPTAQYDYWGQGTQVTVSS | low polyreactivity
QDQLVESGGGLVQAGGSLRLSCAASGGTFGLNAMGWYRQAPGKERELVADIDGRGGCTYYADSVKGRFTISRDNAQNTVYLQMNSLKPEDTAVYYCAARAPFLSVPTELDYWGQGTQVSVSS | low polyreactivity
QVQLVESGGGLVQAGGTLRLSCAASGFTFTSNAMGWYRQEPGKERELVAAITSSGGITYYADSVKGRFTISRDNAKNTVYLQMNSLKPEDNAVYYCAASISSYNSPGYGYWGQGTQVTVSS | low polyreactivity
QVQLVESGGGLVQAGGSLRLICAASGLTFLNNAMGSYRQAPGKERELVAAISDGGSTNYADSVKGRFTISRDNAKNTVYLQMNSLKAEDTAVYYCAAVYTSASSGSWGQGTQVTVSS | low polyreactivity
QVQLVESGVGLVQAGGSLRLSCAASGNIFGYYAMGWYRQAPGKERELVAAISRSGTRTYYADSVKGRFTISRDNAKNTVYLQMNSLKPEDTAVYYCNAAKSPARFQVNNFDYWGQGTQVTVSS | high polyreactivity
QVQLVESGGGLVQAGGSLRLSCAASGSTFGYYAMGWYRQAPRKERELVAVITRGGSTYYADSVKGRFTISRDNAKNTVYVQMNSLKPEDTAVYYCNARVQAVHYGYWGQGTEVTVSS | high polyreactivity
QVQLVESGGGLVQAGGSLRLSCAASGIIFRGYDMGWYRQAPGKERELVAVITDDGSTYYADSVKGRFTISRDNAKNTVYLQMNSLKPEDTAVYYCNADYLLGHWIWYDYWGQGTQVTVSS | low polyreactivity
QVQLVESGGGLVQAGGSLRLRCAASGGIINWYAMGWYRQAQGKERELVAAISWRTTSTYYADSVKGRFTISRDTAKNTVYLQMNCLKPEDTAVYYCYASGEVLAAVVTYDYWGQGTQVTVSS | low polyreactivity
QVQLVESGGGLVQAGGSLRISCAASGRTFRVYSMGWYIQAPGKEWELVASISARSGSTYYADSVKGRFTISRDNAKNTVYLQLNSVKPEDTAVYYSAAARRGFKYDYWGQGTQVTVSS | high polyreactivity
QVQLVESGGGLVQAGGSLRLSCAASGRIYLKYTMGWYRQAPGKEREMVAAISRGGSTYYADSVKGRFTISRDNAKNTVYLQMNSLKPEDTAVYYCAATSYRRTGYNYWGQGTQVTVSS | high polyreactivity
QLQLEESRGGLVQAGGSLRLSCAASGGTCFSYAMGCYRQAPGKERELVAGIRNGGSTKYADSVKGRFTISRDNAKNTVYLQMNSLNPEDTAVYYCAARYYRPYTSSWAHNYRLDYCGQGTQVTVSS | high polyreactivity
QVQLVESGGGLVQAGASLRLSCAASGITFWGYAMGWYRQAPGKEREFVARINWSGGRTYYAESVKGRFTISRDNAKNTVYLEMNSLKPEDTAVYDCAATSLIYGYRTYDYWGQGTQVTVSS | high polyreactivity
QVQLVESGGGIVQAGGSLRLSCAASGLIFFTYAMGWYSQAPGKERELVAAITTGGSTNYADSVKGRFTISRDNAKKTVYLQMNSLKPEDTAVYYCAAQRVSVLLFVRHDYWGQGTQVTVSS | low polyreactivity
QVQLVESGGGLVQAGGSLRLSSAASGSSFYRYAMGSYRQAPGKERELVATITRSGGSTYYADSVKGRFTISRDNAKNTVYLQMNSLKPEDTAVYYCAARGWYKSDYWGQGTQVTVSS | low polyreactivity
QVQLVDSGGGLVQAGGSLRLSCAASGRTFWQYAMGWYRQAPGKERELVAAISRSGGSTYYADSVKGRFTISRDNAQNTVSLQMNSLKPEDTAVYYCAAYYLGYNYDYWGQGTQVTVSS | high polyreactivity
QVQLVESGGGLVQAGGSLRLSCAASGFTFIPNAMGWYRQATGKERELVAAISTGGSTYYADSVKGRFTISRDNAKNTVSLQMNSLKPEDTAVYYCAAGILDLKLYFSSYDYWGQGTQVTVSS | low polyreactivity
QVQLVESGGGLVQAGGSLRLSCAASGSTVDANAMGWYRPAPGKERELVATISDGGSTNYADSVKGRFTISRDNAKKTVYVQKNSLKPEDTAVYYCAAVKLFLGLGYDYWGQGTQVTVSS | low polyreactivity
QVQLVESGGGLVQAGGCLRLSCAASGSIFGYNAMGWYRHAPGKERELVAAISWRGGSTYYADSVKGRFTISRDNAKNSVYLQMNSLKPEDTAVYYCNTLYPYRHDYAGDYWGQGTQVTVSA | high polyreactivity
QVQLVESGGGLVQAGGSLRLSCAASGSTFSYNTMGWYRQAPGKERELVATIDFNGGSTYYADSVKGRFTISRDNAKNTVYLQMNSLKPEDTAVYYCNADRYPYWGYDYWGQGTQVTVSS | low polyreactivity
QVQLVESGGGLVQAGGSLRLSCAASGSTFGVNARGWYRQAPGKERELVAGITWTGGSSYYADSVKGRFTISRDNAKNTVYLQMNSLKPEDTAVYYCAKDWYSSYYDDSEDSWGQGTQVTVSS | low polyreactivity

Sequence | polyreactivity (PSR sort gate)
QVQLVESGGGLVQAGGSLRLSCAASGRIFKLYAMGWYRQAPGKERELVAAISTSAGSTNYADSVKGRFTISRDNSKNTVYLQMNSLKPEDTAVYYCAVAGVSTYYTYYYWGQGTQVTVSS | low polyreactivity
QVQLVESGGGLVQAGGSLRLSCAASGRTFRQYAMGWYRQAPGKERELVAAIRTNGGRTYYADSVKGRFTISRDNAKNTVYLQMNSLKPEDTAVYYCAVYDVVQGVLFDYWGQGTQVTVSS | high polyreactivity
QVQLVESGGGLVQAGGRLRLSCAASGRTFGVYAMGWYRQSPGKEREFVGVISWSDDSTYYADSVKGRFTISRDNAKNTVYLQMNSLKPEDTAVYYCNADDYLVYSGSHYGYWGQGTQVTVSS | low polyreactivity
QVQLVETGGGLVQAGGSLRLSCAASGSIFTYYTMGWYRQAPGKERELVAAINGRGHSTYYADSVKGRFTISRDNAKNTVYLHMNSLKPEDTAVYYCARRRQYEYNYWGQGTQVTVSS | high polyreactivity
QVQLVESGGGLVQARASLRLSCAASGNTIGYYAMGWYRQAHGKERELVAAISKRGGSTRYADSVKGRFTISRDNAKNTVYLQMNSLKPEDTAVYYCNAEGFGSLRYSYCNSFDYWGQGTQVTVSS | high polyreactivity
QVQLVESGGGLVQAGGSLRLSCAASGSTFTLYAMGWYRQAPGKERELVATITGSGGSTNYADSVKGRFTISRDNAKNTVYLQMNSLKPEDTAVYYCAADYAVYSFTEFNYWGHGTQVTVSS | high polyreactivity
QVLLQESGGLVQAGCSLRMSCAASGSISTALSMGWYRQAPGKERELVATISDGASTNYADSVKGRFTISRVNAKNTVYLQMNSLKPEDTEVYYCAAQSQYRPDHRYWGQGTQVTVSS | high polyreactivity
QVQLVESGGGLVQAGGSLRLSCAASGSTFYLYAMGWYRQAPGKERELVAAISWSGGDTYYADSVKGRFTISRDNANNTVYLQMTSLKPEDSAVYYCAAEITYSYPGSPRRRDYWGQGTQVTVSS | low polyreactivity
QVQLVESGGGLVQAGGSLRLSCAASGNTFYWYVMGWYRQAPGKERELVARITSSGGSTNYADSVKGRFTISRDNAKNTVYLQMNSLKPEDTAVYYCAADDIYLYGGGTDYYFWGQGTQVTVSS | low polyreactivity
QVQLVESGGGLVQAGGSLRLSCAASGYIFYGYAMGWYRQAPWKESEWVAAITVRGGSTYYADSVKGRFTISRDKAKNTVYLQKNSQKPEDTAVYYCAAAPQFTFGVGYWGQVTQVTVSS | low polyreactivity
EVQLVESGGGLVQPGGSLRLSCAASGYIYSRYRMGWYRQAPGKGREFVAAISGGSSTTYADSVKGRFTISRDNSKNTVYLQMNSLRAEDTAVYYCAAYKIDSDPRVYWGQGTQVTVSS | low polyreactivity
QVQLVESGGGLVQAGGSLRLSCAASGIIFGVYAMGWYRQAPGKERELVADISSGDSTNYADSVKGRFTISRANAKNTVYLQMNSLKPEDTAVYYCAAEFGRMYWRYGYWGQGTQVTVSS | low polyreactivity
QVQLVESGGGLVQAGGSLRLSCAASGRTLARNAKGWYRQAPGKERELVASINGRTTRTYYADSVKGRFTISRDNAKNTVYLQMNSLKPEDTAVYYCAADPPGYVYGKRYYWGQGTQVTVSS | high polyreactivity
QVQLVESGGGIVQAGGSLRLSCAASGSTFEANAMGWYRQARGKERELVAAISSGDRTNYADSVKGRFTISRDNAKNTVYLQLNSLKPEDNAVYFCAAPTDSYYEFDYWGQGTQGTVSS | low polyreactivity
QVQLVESGGGLVQAGGSLRLSCAASGSIFVYYAMGWYRQAPGKERELVARITRGGRTYYADSVKGRFTISRDNAKNTVYLQMNSLKPEDTAVYYCAADYRVQLRKEYDYWGQGTQVTVSS | high polyreactivity
QVQLVESGGGLVQAGGSLRLSCAASGITFYDNVMGWYRQAPGKERELVAAITSGGSTNYADSVKGRFTISRDNAKNTVYFQMNRLKPEDTAVYYCAAQPRVDYEFPYRYGYWGQGTQVTVSA | low polyreactivity
QVQLVESGGGLVQAGGSLRLSCAASGSIFQSYAMGWYRQAPGKERELVAAISYSGDGTFYADSVKGRFTISRDNAKNTVYLQMNSLKPEDTAVYYCAASSTGYGGSTYYYWGQGTQVTVSS | low polyreactivity
QVQLEESGGGLVQAGGSLRLSCVASGSTFRFYAMGWYRPAPGNERQLVAAITWRGTSTYYADSVKGRFTISRDNAKNSVYLQMNSLKPEDTAVYYCNAAGYWPATGDYWGQGTQVTVSS | high polyreactivity
QVQLVESGGGLVQAGGSLRLSCAASGITFLPYAMGWYRPAPGKERELVAAITRGGGSTYADSVKGRFTISRDNAKNTVYLQMNSLKPEDTAVYYCAKRYGRVSWYEDYDYWGQGTQVTVSS | low polyreactivity
QVQLVESGGGLVQAGGSLRLSCAASGRTFPAYTMGWYRQAPGKERELVAAINWSGGSTYYADSVKGRFTISRDNAKNTVYLQMNSLKPEDTAVYYCARTSHYYGFRSYGTLDYWGQGTQVTVSS | high polyreactivity
QVQLVESGGGLVQEGGSLRLSCAASGSTFWGYAMGWYRQAPGKERELVATITTGGSTNYADSVKGRFTISRDNAKNTVYLQMNSLKPEDTAVYYCAAERLFRFWYSAYERYDYCGQGTQVTVSS | low polyreactivity
